The test system of data set [1] is T1, SepH (Streptomyces venezuelae NRRL B-65442), ORF:b45d4985.
T1 sequence: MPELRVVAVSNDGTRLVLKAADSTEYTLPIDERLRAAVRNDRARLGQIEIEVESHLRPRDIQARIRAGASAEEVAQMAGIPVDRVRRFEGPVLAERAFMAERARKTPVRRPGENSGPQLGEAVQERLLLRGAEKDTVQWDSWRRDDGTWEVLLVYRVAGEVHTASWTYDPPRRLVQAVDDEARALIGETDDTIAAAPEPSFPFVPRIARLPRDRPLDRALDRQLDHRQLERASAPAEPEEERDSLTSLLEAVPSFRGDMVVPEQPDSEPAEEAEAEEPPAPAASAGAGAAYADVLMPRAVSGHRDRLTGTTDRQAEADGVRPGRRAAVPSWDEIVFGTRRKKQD
The data set can be described thus: EMSA. Conditions: 50 mM HEPES/KOH pH 7.2, 50 mM KCl, 5 mM MgCl2, room temperature, 30 min (EMSA 50 ng probe in 20 uL, 0.5x TBE gel; footprinting 40 uL). On the technique in general: Mobility shift assays separate free from complexed probe on a gel.

Data set [2] has the same test system. The data set can be described thus: DNase I footprinting. The note with it: 50 mM HEPES/KOH pH 7.2, 50 mM KCl, 5 mM MgCl2, room temperature, 30 min (EMSA 50 ng probe in 20 uL, 0.5x TBE gel; footprinting 40 uL).
Data set [3] addresses FtsZ (S. venezuelae), purified, untagged (Streptomyces venezuelae). Kind of data set: co-sedimentation; high speed (350,000 x g, 15 min); 3.5 µM FtsZ, with or without 0.6 µM SepH, 1 mM GMPCCP, buffer P, 30°C.
For data set [4] the target is unchanged. The data set can be described thus: co-sedimentation; high speed (350,000 x g, 15 min); 3.5 µM FtsZ, 0.6 µM SepH or SepH-G79P, with or without 2 mM GTP, buffer P, 30°C; SDS-PAGE, Coomassie, bands quantified.
For data set [5] the target is unchanged.
The target of data set [6] is SepH (S. venezuelae), purified, untagged (Streptomyces venezuelae). The data set can be described thus: SEC; 30 µM protein, Superose 12 10/300 GL, buffer P (50 mM HEPES pH 7.2, 50 mM KCl, 5 mM MgCl2); size predicted from MW standards.
The target of data set [7] is SepH-CTD (residues 187-344 of S. venezuelae SepH), purified, untagged (Streptomyces venezuelae). The description is as above.
Data set [8] concerns the target SepH-G79P (S. venezuelae), purified, untagged (Streptomyces venezuelae). Described as above.
The target of data set [9] is SepH-NTD (residues 1-186 of S. venezuelae SepH), purified, untagged (Streptomyces venezuelae). The data set is described as above.
Data set [10] deals with the molecule itself. Kind of data set: SEC; SepHMs, Superose 12 10/300 GL, modified buffer P (50 mM HEPES pH 6.8, 100 mM KCl, 5 mM MgCl2); size predicted from MW standards.

One may read the stoichiometry N as the number of molecules, sites or subunits per partner or assembly.

“CCTTCGATCGTCCCTGGTCGGAGCGGCCGGTCGATGATCGAATCGGCGGCTCGGGATGATCACTGCCCGAGTGGGATGCCACCATGCCGACCCATGCGGCGGCTCACTCGAACGGGTCGAACGCGCCGGGGTGCGCGCCCCTCAGGCGCCGTGGGCGCGCCTCTCAGCGGAGAGGACGTGTTCCCCGGGAACGACAAAGCCCCGGTTGGACGGGGGATTCCAACCGGGGCCGATCGCCGTGACGCGAAGGGC (double strand) [vnz_35870 promoter region probe]”: the binding entry in [1] and in [2] was “no binding” in each case.

In turn, “FtsZ (S. venezuelae), purified, untagged (natural protein)” gave a percent of FtsZ in the pellet (with GMPCCP) in data set [3] of 88%. In data set [4], this molecule registered a percent of FtsZ in the pellet (with GTP and SepH) of 47%; a percent of FtsZ in the pellet (with GTP and SepH-G79P) of 36%; a percent of FtsZ in the pellet (with GTP) of 35%.

For the molecule “GCGGTCGTCGCCGCGGGCGGAGCCGATGCCCATCAGGGCCGAACCGGCCTCGGACATGACCGACTTGACGTCGGCGAAGTCGAGGTTGATCAGGCCCGGGGTGGTGATGAGGTCGGTGATGCCCTGCACACCGCTCAGCAGCACCTGGTCGGCCGACTTGAAGGCGTCGAGCACGGAGACCTGGCGGTCCGAGATCGACAGGAGCCGGTCGTTGGGGATGACGATGAGGGTGTCGACCTCTTCGCGGAGCTCGGCGATGCC (double strand) [vnz_08520 (ftsZ) internal probe]”, the binding result in data set [1] is “no binding”.

On to “GCTGCTCGTCCCCGCGCAGGCGGAACCCGACGACGTCGTCCTGTCCTGGGAGGGGGAGGACGTGCTCGCCGTACGGCTGCCGCAGCTGTCCGAATCCCTCGATCACATCCTGGCGGCGATGGAGCGGCGGCACGGGATGCCACTGGCCGAGCTGGACCGCAAGGCCAAGCAGGAGGCCGTCCGTCTGCTGGAGGCGCGCGGCGCCTTCGCCGTACGCCATGGAGTGGAGACGGTGGCGGGTGCACTCGGTGTCAGCCGC (double strand) [vnz_30075 promoter region probe]”, for which the binding result in data set [2] is given as “no binding”.

“SepH (S. venezuelae), purified, untagged (natural protein)” showed a critical concentration of FtsZ from the GTPase rate, with 0.6 µM SepH (1.43 µM without SepH) in [5] of 1.11 µM. The molecule also had a percent of SepH in the pellet (with FtsZ and GMPCCP) in data set [3] of 98%. The stoichiometry N in [6] is 4. For the same molecule, the percent of SepH in the pellet (with FtsZ and GTP) in [4] was determined as 96%.

For “SepH-CTD (residues 187-344 of S. venezuelae SepH), purified, untagged (domain or fragment)”, the stoichiometry N in data set [7] is 4.

In the case of “SepH-G79P (S. venezuelae), purified, untagged (natural protein)”, the stoichiometry N in [8] is 4. Further, the percent of SepH-G79P in the pellet (with FtsZ and GTP) in data set [4] is 50%.

In the case of “SepH-NTD (residues 1-186 of S. venezuelae SepH), purified, untagged (domain or fragment)”, in [9], the stoichiometry N is 2.

B1: SepHMs-6xHis (SepH from M. smegmatis), purified (natural protein, Mycobacterium smegmatis mc2 155, UniProt A0R430 1-276, looked up)
chain: MRELRVVGLDVDGKRIICETADSAEMFTLRVDDRLRAALRGDKVASNQTEIDLEVQSVLRPKEIQAKIRAGASVEQLAAAAGVPVERVERFAHPVLLERARAAELATAAHPVLADGPSVLTLLETVTKALVARGLDPDAVAWDAWRNEDSRWTVQLAWKAGRSDNVAHFRFTPGSHGGLVTASDDAAHQLINPDFARPLRPVAAVPQLEFEAPQPAQPAAPPQPAQAVPTPEPAPAPEQEPEPAPAPAPKRSRKARATVPAWEDVLLGVRSSGTQR
notes: SepH homolog of Mycobacterium smegmatis mc2 155, MSMEG_5685, in pET21b (pSS561); Tetramer predicted from size exclusion chromatography; also called SepHMs-His6; SepH-6xHis; source: E. coli Rossetta (DE3), purified (HisTrap); not shown: His6, C-terminal, kept
Regarding B1, in data set [10], the “stoichiometry N” value was 4.

(Values after article PMC7968930, “A conserved cell division protein directly regulates FtsZ dynamics in filamentous and unicellular actinobacteria” (eLife, 2021).)
